According to patent US10648014B2, “Degradation resistant peptide based biosensors” (Purdue Research Foundation, priority 2014, dated 2020):
Square brackets hold non-standard residues; d marks the D form. Ends that are not written are not given here. * marks the point of attachment. Biotin = O=C1N[C@H]2[C@H](CS[C@H]2CCCCC(=O)*)N1; photo‑cleavable linker = not defined here

Assays:
[1] = system: K562 chronic myelogenous leukemia (CML) cells; type: in vitro ADME, Human
Method: Biosensor Enrichment: K562 cells were incubated in lysis buffer for 20 minutes. Samples were spun down in 2500×g for 5 minutes at 4° C. Lysate was transferred to new Eppendorf tubes and treated with UV light (CL-1000 Ultraviolet Crosslinker (UVP, Upland, Calif., USA)) for 20 minutes to cleave the photo-cleavable linker. Photocleaved lysate samples were incubated with streptavidin coated agarose beads (Pierce) in 96 well polypropylene filter plate (PALL, Ann Arbor, Mich.) for 20 minutes at room temperature. Following incubation, the plate was spun down at 250×g for 30 seconds over a 96 well collection plate. The wells were washed 4 times with 200 uL of PBS and 2 times with MilliQ water, and spun down for 30 seconds at 250×g after each addition. Beads were resuspended in 15 μL of (75%/25%/0.1%:acetonitrile/water/TFA) elution buffer and shaken for 15 minutes at 600 rpm. Biosensor samples were spotted at 0.5 μL on a MALDI plate with 0.5 μL of matrix (10 mg/mL α-cyano-4-cinnamic acid and 10 mg/mL ammonium hydrogen phosphate, dissolved in 75%/25%/0.1% acetonitrile/water/TFA). Mass analysis was performed using an Applied Biosystems Voyager 4800 MALDI-TOF/TOF using linear positive mode.
Human K562 chronic myelogenous leukemia (CML) cells were exposed to either the control biosensor SEQ ID NO: 52 or the biosensor SEQ ID NO: 47 for 5 minutes as shown in FIGS. 8-13. […]

[2] = target: T1, Bcr-Abl kinase (Homo sapiens, UniProt P00519); assay: K562 cell kinase assay, intracellular phosphorylation of biosensor; type: cell-based; details: K562 cells, 60 minutes incubation, FIG. 6
T1 construct: endogenous in cells; host or cells: K562; the other entry of the earlier key: BCR (P11274, Breakpoint cluster region protein)
T1 sequence (P00519 with tags, fused parts or gaps): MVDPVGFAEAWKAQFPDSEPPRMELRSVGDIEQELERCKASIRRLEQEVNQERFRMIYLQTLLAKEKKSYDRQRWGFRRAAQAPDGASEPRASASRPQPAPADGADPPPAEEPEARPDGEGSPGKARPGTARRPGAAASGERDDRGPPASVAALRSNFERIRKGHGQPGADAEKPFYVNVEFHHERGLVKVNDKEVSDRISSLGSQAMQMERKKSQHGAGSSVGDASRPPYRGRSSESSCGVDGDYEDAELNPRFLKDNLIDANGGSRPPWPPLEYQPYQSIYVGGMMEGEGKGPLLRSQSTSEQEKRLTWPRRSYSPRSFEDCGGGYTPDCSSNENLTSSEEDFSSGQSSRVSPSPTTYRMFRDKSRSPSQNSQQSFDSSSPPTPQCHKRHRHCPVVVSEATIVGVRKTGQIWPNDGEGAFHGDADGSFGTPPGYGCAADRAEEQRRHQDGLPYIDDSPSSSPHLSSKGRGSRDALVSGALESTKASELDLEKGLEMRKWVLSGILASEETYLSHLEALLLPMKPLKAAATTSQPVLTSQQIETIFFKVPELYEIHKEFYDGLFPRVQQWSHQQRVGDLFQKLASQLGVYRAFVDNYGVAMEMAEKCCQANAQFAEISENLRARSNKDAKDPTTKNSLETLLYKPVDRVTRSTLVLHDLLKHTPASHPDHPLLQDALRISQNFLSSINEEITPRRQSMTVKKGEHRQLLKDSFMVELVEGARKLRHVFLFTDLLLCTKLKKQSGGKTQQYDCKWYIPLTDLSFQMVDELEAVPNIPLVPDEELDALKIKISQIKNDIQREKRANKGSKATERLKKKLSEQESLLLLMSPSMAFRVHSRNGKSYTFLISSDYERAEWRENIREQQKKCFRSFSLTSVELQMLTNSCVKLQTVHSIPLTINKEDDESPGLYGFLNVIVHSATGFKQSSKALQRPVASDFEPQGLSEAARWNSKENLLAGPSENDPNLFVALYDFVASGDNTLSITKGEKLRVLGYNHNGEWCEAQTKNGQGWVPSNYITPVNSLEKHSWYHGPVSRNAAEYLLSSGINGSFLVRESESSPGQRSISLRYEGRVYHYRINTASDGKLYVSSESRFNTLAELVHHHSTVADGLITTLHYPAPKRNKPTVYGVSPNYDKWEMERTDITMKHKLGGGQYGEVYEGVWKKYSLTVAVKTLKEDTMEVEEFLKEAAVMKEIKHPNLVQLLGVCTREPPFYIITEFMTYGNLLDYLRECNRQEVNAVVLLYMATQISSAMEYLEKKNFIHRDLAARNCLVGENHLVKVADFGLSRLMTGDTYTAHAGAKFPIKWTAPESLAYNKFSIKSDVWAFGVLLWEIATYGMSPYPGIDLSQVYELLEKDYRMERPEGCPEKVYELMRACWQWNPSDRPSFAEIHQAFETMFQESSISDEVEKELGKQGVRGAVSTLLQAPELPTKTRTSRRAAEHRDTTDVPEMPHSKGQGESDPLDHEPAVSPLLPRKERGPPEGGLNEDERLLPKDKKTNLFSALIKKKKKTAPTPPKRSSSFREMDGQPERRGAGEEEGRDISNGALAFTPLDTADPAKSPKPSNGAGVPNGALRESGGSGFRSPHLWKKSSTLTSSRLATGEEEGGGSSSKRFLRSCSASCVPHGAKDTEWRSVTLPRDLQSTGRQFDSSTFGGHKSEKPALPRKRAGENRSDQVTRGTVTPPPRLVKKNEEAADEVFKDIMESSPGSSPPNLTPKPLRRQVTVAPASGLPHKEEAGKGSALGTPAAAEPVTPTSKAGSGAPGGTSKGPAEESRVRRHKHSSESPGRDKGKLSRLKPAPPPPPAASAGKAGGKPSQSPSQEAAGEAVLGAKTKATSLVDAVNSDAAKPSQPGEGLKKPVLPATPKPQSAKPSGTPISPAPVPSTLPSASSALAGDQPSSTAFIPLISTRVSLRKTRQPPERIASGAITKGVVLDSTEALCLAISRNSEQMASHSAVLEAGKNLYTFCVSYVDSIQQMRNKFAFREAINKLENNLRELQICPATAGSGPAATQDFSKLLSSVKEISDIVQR

[3] = target: Lyn kinase (Homo sapiens, UniProt P07948); assay: In vitro kinase assay against Lyn kinase; type: biochemical; details: FIG. 2
Lyn kinase, sequence (P07948 whole entry): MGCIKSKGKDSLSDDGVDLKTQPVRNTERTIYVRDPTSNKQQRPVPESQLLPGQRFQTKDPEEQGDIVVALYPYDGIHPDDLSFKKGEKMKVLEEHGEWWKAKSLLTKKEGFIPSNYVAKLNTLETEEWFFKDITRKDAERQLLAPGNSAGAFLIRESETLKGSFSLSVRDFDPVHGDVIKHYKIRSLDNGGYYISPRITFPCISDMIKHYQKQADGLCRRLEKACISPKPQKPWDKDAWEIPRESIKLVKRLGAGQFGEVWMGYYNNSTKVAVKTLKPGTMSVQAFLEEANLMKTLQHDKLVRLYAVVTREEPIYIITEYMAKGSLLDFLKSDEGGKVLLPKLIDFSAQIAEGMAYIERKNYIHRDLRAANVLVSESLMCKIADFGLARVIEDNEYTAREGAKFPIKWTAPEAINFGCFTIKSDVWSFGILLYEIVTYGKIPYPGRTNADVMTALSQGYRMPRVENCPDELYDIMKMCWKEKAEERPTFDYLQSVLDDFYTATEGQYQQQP
Method: (§1) In Vitro Abl Kinase Assay: The in vitro kinase assays were performed in triplicate in Dulbecco's Phosphate Buffered Saline without Calcium, Magnesium, or Phenol red in water bath maintained at 37° C. The total volume of the assay was 200 uL, and contained 1 mM ATP, 10 mM MgCl2, 5-25 uM of the biosensor, and 6 nM of Arg or Lyn Kinase final concentrations. Initiation of the assay was the addition of 1 uL of Arg Kinase to the reaction mix and heated at 37° C. Aliquots of 20 uL were collected at intervals described over a total run time of up to 60 minutes.
(§2) In order to assess the selectivity of the biosensor SEQ ID NO: 47, we tested against Lyn and Fyn kinases using the in vitro kinase assay.

[4] = system: K562 cells; type: cell-based, Human
Method: Flow Cytometry: K562 cells (about 1×10^6 cells/mL) were incubated for 30 minutes with FITC labeled biosensors at various concentrations, 1-50 μM. Cells were centrifuged at about 2500 rpm for about 5 minutes at 4° C. Media was aspirated and cells were washed 3 times with fresh media. A FC500 flow cytometer (Beckman Coulter) was used to analyze 50 μL aliquots of suspended cells.
Flow cytometry was used to verify the uptake of the biosensor SEQ ID NO:47 by K562 cells. We conjugated a FITC fluorophore to the cysteine residue of the biosensor by maleimide reaction.

[5] = system: Abl kinase; assay: In vitro Abl kinase assay, phosphorylation detected by mass spectrometry; type: biochemical; details: for phosphorylation by Abl kinase: in vitro kinase assay, mass spectrometry, FIG. 2; for selectivity toward the Abl family of kinases: in vitro kinase assays Abl vs Lyn and Fyn
Method: as §1
Referring now to FIG. 2, to evaluate the importance of the SH3 targeting sequence, we performed in vitro kinase assays comparing the peptides using the Abl kinase. Phosphorylation was detected using mass spectrometry.

[6] = target: Fyn kinase (Homo sapiens, UniProt P06241); assay: In vitro kinase assay against Fyn kinase; type: biochemical; details: FIG. 2
Fyn kinase, sequence (P06241 whole entry): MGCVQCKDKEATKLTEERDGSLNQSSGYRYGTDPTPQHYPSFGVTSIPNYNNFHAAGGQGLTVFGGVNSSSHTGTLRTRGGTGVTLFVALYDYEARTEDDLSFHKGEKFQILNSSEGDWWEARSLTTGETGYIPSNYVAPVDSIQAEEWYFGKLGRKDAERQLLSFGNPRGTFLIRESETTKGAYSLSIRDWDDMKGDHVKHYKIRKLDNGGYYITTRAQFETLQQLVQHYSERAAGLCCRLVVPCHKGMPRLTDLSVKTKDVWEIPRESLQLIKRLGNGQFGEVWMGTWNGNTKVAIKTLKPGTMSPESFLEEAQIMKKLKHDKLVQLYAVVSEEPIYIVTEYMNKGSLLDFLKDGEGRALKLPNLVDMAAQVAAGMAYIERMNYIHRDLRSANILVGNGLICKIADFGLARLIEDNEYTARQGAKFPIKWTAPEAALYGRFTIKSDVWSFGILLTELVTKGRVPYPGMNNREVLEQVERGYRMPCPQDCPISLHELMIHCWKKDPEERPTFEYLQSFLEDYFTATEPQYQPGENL
Method: as §1, §2

[7] = biosensor incubated with Abl kinase, Michaelis Menten, FIG. 3

| Substance | degradation after exposure to K562 cells [1] | intracellular phosphorylation of the biosensor [2] | phosphorylation by Lyn kinase [3] | uptake by K562 cells [4] | Km [5, 7] | Vmax [5, 7] | phosphorylation by Abl kinase [5] | selectivity toward the Abl family of kinases [5] | selectivity for Abl over Lyn or Fyn kinases [6] |
| --- | --- | --- | --- | --- | --- | --- | --- | --- | --- |
| EAIYAAFAKKG-Kbiotin-photo-cleavable linker-GCGAPTYSPPPPPGGRKKRRQRRR (EAIYAAFAKKGK(Biotin)[photo‑cleavable linker]GCGAPTYSPPPPPGGRKKRRQRRR; reading uncertain) [SEQ ID NO: 52, reference compound] | almost completely degraded |  |  |  |  |  |  |  |  |
| KbiotinkkafpaayiaeG-photo-cleavable linker-GCGAPTYSPPPPPGGrrrqrrkkr (K(Biotin)[dK][dK][dA][dF][dP][dA][dA][dY][dI][dA][dE]G[photo‑cleavable linker]GCGAPTYSPPPPPGG[dR][dR][dR][dQ][dR][dR][dK][dK][dR]; reading uncertain) [SEQ ID NO:47] | essentially intact | observed | did not phosphorylate | confirmed the uptake | 7.5 µM | 849.5 pmol/mg/min | phosphorylated with reasonable efficiency | relatively selective toward the Abl family of kinases | selective for Abl over Lyn or Fyn kinases |
| KbiotinkkafpaayiaeG-photo-cleavable linker-GCGGrrrqrrkkr (K(Biotin)[dK][dK][dA][dF][dP][dA][dA][dY][dI][dA][dE]G[photo‑cleavable linker]GCGG[dR][dR][dR][dQ][dR][dR][dK][dK][dR]; reading uncertain) [SEQ ID NO: 53] |  |  |  |  |  |  | not appreciably phosphorylated | relatively selective toward the Abl family of kinases |  |
